Test results taken from US10555963B2, “Klotho protein and related compounds for the treatment and diagnosis of cancer” (TEL HASHOMER MEDICAL RESEARCH INFRASTRUCTURE AND SERVICES …, priority 2007, dated 2020).

Assays:
[1] = test system: Panc1 cells; assay: MTT proliferation assay, soluble klotho protein and 5-FU; conditions: 5-FU 500 μM alone; 48 hr
Protocol: 3000 cells/well were plated in 96-well plates, cultured in the appropriate culture media, and treated for 48 hrs as indicated.
Medium alone served as control. 48 hr after incubation, cells were cultured for 2 hr with 500 μg/ml MTT reagent, the medium was aspirated, and the cells were dissolved in dimethyl sulfoxide (DMSO). Absorbance of the formazan product was measured by an enzyme-linked immunosorbent assay reader to provide a measure of viability.

[2] = test system: MCF-7 cells; assay: MTT proliferation assay after klotho protein down-regulation by siRNA; format: cell-based, human; conditions: 48 h; compared to siRNAc; p<0.05
Protocol: (§1) Klotho protein directed stealth siRNA duplex oligoribonucleotides and control siRNAs were both designed and purchased from Invitrogen. Lipofectamine 2000 (Invitrogen), and was used to transfect the cells with 100 pmoles of siRNA.
The medium was aspirated, and the cells were dissolved by dimethyl sulfoxide (DMSO).
(§2) Three klotho protein-directed siRNAs were designed and tested for their ability to silence klotho protein expression in MCF-7 cells, compared to a control siRNA (siRNAc).

[3] = test system: AKT in MCF-7 cells; assay: AKT phosphorylation after IGF-1 stimulation in klotho-silenced MCF-7 cells; format: cell-based, human; conditions: compared to siRNAc transfected cells
Text: as §1
The effect of silencing of klotho protein in MCF-7 cells, using siRNA3, was also studied.

[4] = test system: klotho protein mRNA; assay: Silencing of klotho protein expression by siRNA in MCF-7 cells (mRNA levels); format: cell-based, human; conditions: MCF-7 cells transfected with siRNA
Text: as §1
For breast cell studies, total RNA was extracted using the RNA isolation kit (Sigma) and processed to cDNA with RevertAid (Fermentas, Vilnius, Lithuania). Primers were designed using Primer Express (Applied Biosystems, Foster City, Calif.) and synthesized by IDT (Coralville, Iowa). […].
as §2

[5] = test system: Panc1 cells; assay: In vivo Panc1 tumors in athymic mice treated with sol-hKL or sol-hKL1; conditions: i.p. five days a week for five weeks; for tumor growth (tumor volume and weight): sol-hKL 2.5 μg/kg, sol-hKL1 10 or 25 μg/kg, p<0.05
Protocol: The in vivo growth inhibitory activity of sol-hKL1, compared to sol-hKL, on pancreatic cancer cells was examined (FIG. 17C-G). Panc1 cells were injected into one flank of athymic mice and mice were treated with intraperitoneal injections of either control vehicle (N=12), sol-hKL (2.5 μg/kg, N=7), or sol-hKL1 (10 μg/kg, N=6; 25 μg/kg, N=7), five days a week for five weeks. Weight of mice (FIG. 17C) and tumor volume (FIG. 17D) in control and treated groups were monitored weekly and tumor weight was measured on day of sacrifice (FIG. 17E).

[6] = test system: Panc1 cells; assay: MTT viability assay, sol-hKL or sol-hKL1; format: cell-based, human; conditions: 48 hrs
Protocol: The activity of hKL1 was also tested. Panc1 cells were treated with either sol-hKL or sol-hKL1 for 48 hrs and viability was assessed after 48 hours by MTT assay (FIG. 17B).

[7] = test system: MiaPaCa2 cells; assay: In vivo MiaPaCa2 tumors in athymic mice treated with sol-hKL or sol-hKL1; conditions: sol-hKL 2.5 μg/kg, sol-hKL1 10 μg/kg; for tumors completely regressed (number) / tumors completely regressed (percent): after four weeks
Protocol: A similar experiment, with minor differences, was also performed using MiaPaCa2 cells (FIGS. 17H, 17I). Cells were injected into both flanks of athymic mice and mice were treated with either a control vehicle (N=8), sol-hKL (2.5 μg/kg, N=8) or sol-hKL1 (10 μg/kg, N=8).

[8] = Blood counts and chemistry of treated mice; format: in vivo; conditions: for glucose levels: after fasting, MiaPaCa2 xenograft experiment; for blood counts or liver function tests: data not shown; for hypophosphatemia in treated mice: mouse, in vivo
Protocol: The effects of sol-hKL and sol-hKL1 on blood counts and chemistry were also studied. For these studies, blood was withdrawn from control, sol-hKL-treated (2.5 μg/kg) or sol-hKL1-treated (10 μg/kg) mice, at the same day as sacrificing and tumor harvesting, following five weeks of treatment.

[9] = test system: IGF-1 pathway in Panc1 cells; assay: IGF-1 pathway in Panc1 cells treated with soluble klotho protein (immunoblot); format: cell-based, human; conditions: klotho 10 min, then IGF-1 12.5 nM, 15 min
Protocol: For pancreatic cells, protein extraction and Western blotting was performed as described (Wolf et al., 2008).
Since klotho protein is shed and may act as a circulating hormone, the ability of soluble klotho protein to inhibit activation of the IGF-1 pathway in Panc1 cells was tested. V5-tagged soluble klotho protein was generated as described [Kurosu H. et al., 2005]. Panc1 cells were treated with klotho protein for 10 min and stimulated with IGF-1 (12.5 nM, 15 min), and expression and phosphorylation of the IGF-1R, AKT and ERK1/2 was determined.

[10] = test system: IGF-1R in MCF-7 cells; assay: IGF-1R phosphorylation in MCF-7 cells treated with soluble klotho protein; format: cell-based, human; conditions: klotho 15 min, then IGF-1 12.5 nM
Text: Soluble klotho protein was generated essentially as described (Kurosu et al., 2005). In brief, insect cells, which stably express V5-tagged soluble klotho protein, were generated using the Drosophila Expression System (Invitrogen). A cDNA fragment encoding the entire extracellular domain of mouse Klotho protein (amino acid residues 31 to 982 of SEQ ID NO: 3) was inserted into a pMT/BiP/V5-His expression vector, allowing inducible expression from metallothionein promoter and secretion of the recombinant protein with V5 and 6×His tags at the C-terminus into conditioned medium. The expression vector was transfected into Drosophila Schneider cells by the calcium phosphate method together with pCoHYGRO selection vector. […]
As klotho protein may also be shed and act as a circulating hormone (Kuro-o et al., 1997; Matsumura et al., 1998), the ability of soluble klotho protein to inhibit activation of the IGF-1 pathway in MCF-7 cells was tested. V5-tagged soluble klotho protein was generated as described under “Materials and Methods”, its expression and purity were examined using Coomassie staining and its concentration was determined (data not shown). MCF-7 cells were treated with klotho protein for 15 min and, stimulated with IGF-1 (12.5 nM, 15 min), and expression and phosphorylation of the IGF-1R was determined.

[11] = five weeks of treatment, sol-hKL 2.5 μg/kg, sol-hKL1 10 μg/kg

O=c1[nH]cc(F)c(=O)[nH]1 [5-FLU, 5-Fluorouracil]
reduction in viability [1]: 50%

CACCAAGAGAGAUGAUGCCAAAUAU [siRNA3]
increase of proliferation of MCF-7 cells (MTT assay) [2]: 2.5 fold
AKT phosphorylation following IGF-1 stimulation [3]: increased
reduction of klotho protein expression (mRNA levels) [4]: 88%

B1: sol-hKL1: Human KL1 (residues 34-549 of SEQ ID: 2) obtained from PeproTech Inc. (protein)
chain: EPGDGAQTWARFSRPPAPEAAGLFQGTFPDGFLWAVGSAAYQTEGGWQQHGKGASIWDTFTHHPLAPPGDSRNASLPLGAPSPLQPATGDVASDSYNNVFRDTEALRELGVTHYRFSISWARVLPNGSAGVPNREGLRYYRRLLERLRELGVQPVVTLYHWDLPQRLQDAYGGWANRALADHFRDYAELCFRHFGGQVKYWITIDNPYVVAWHGYATGRLAPGIRGSPRLGYLVAHNLLLAHAKVWHLYNTSFRPTQGGQVSIALSSHWINPRRMTDHSIKECQKSLDFVLGWFAKPVFIDGDYPESMKNNLSSILPDFTESEKKFIKGTADFFALCFGPTLSFQLLDPHMKFRQLESPNLRQLLSWIDLEFNHPQIFIVENGWFVSGTTKRDDAKYMYYLKKFIMETLKAIKLDGVDVIGYTAWSLMDGFEWHRGYSIRRGLFYVDFLSQDKMLLPKSSALFYQKLIEKNGFPPLPENQPLEGTFPCDFAWGVVDNYIQVSQLTKPISSLTKPYH
changes in weight or general health of mice [5]: No changes
tumor growth (tumor volume and weight) [5]: significantly inhibited tumor growth
concentration for 50% viability reduction relative to sol-hKL [6]: 100 times
reduction of viability of Panc1 cells ([6]; p<0.005 vs control): 50%
tumors completely regressed (number) [7]: four
tumors completely regressed (percent) [7]: 25%
tumor growth inhibition compared with sol-hKL [7]: more effectively than sol-hKL
glucose levels [8]: did not have any significant effect
blood counts or liver function tests [8, 11]: did not affect
hypophosphatemia in treated mice [8]: not

B2: sol-hKL: Soluble human Klotho protein (hKL) obtained from R&D Systems (protein, UniProt Q9UEF7 34-981, looked up)
extracellular domain: EPGDGAQTWARFSRPPAPEAAGLFQGTFPDGFLWAVGSAAYQTEGGWQQHGKGASIWDTFTHHPLAPPGDSRNASLPLGAPSPLQPATGDVASDSYNNVFRDTEALRELGVTHYRFSISWARVLPNGSAGVPNREGLRYYRRLLERLRELGVQPVVTLYHWDLPQRLQDAYGGWANRALADHFRDYAELCFRHFGGQVKYWITIDNPYVVAWHGYATGRLAPGIRGSPRLGYLVAHNLLLAHAKVWHLYNTSFRPTQGGQVSIALSSHWINPRRMTDHSIKECQKSLDFVLGWFAKPVFIDGDYPESMKNNLSSILPDFTESEKKFIKGTADFFALCFGPTLSFQLLDPHMKFRQLESPNLRQLLSWIDLEFNHPQIFIVENGWFVSGTTKRDDAKYMYYLKKFIMETLKAIKLDGVDVIGYTAWSLMDGFEWHRGYSIRRGLFYVDFLSQDKMLLPKSSALFYQKLIEKNGFPPLPENQPLEGTFPCDFAWGVVDNYIQVDTTLSQFTDLNVYLWDVHHSKRLIKVDGVVTKKRKSYCVDFAAIQPQIALLQEMHVTHFRFSLDWALILPLGNQSQVNHTILQYYRCMASELVRVNITPVVALWQPMAPNQGLPRLLARQGAWENPYTALAFAEYARLCFQELGHHVKLWITMNEPYTRNMTYSAGHNLLKAHALAWHVYNEKFRHAQNGKISIALQADWIEPACPFSQKDKEVAERVLEFDIGWLAEPIFGSGDYPWVMRDWLNQRNNFLLPYFTEDEKKLIQGTFDFLALSHYTTILVDSEKEDPIKYNDYLEVQEMTDITWLNSPSQVAVVPWGLRKVLNWLKFKYGDLPMYIISNGIDDGLHAEDDQLRVYYMQNYINEALKAHILDGINLCGYFAYSFNDRTAPRFGLYRYAADQFEPKASMKHYRKIIDSNGFPGPETLERFCPEEFTVCTECSFFHTRKS
modifications: extracellular domain
notes: Soluble human Klotho protein (hKL) obtained from R&D Systems
changes in weight or general health of mice [5]: No changes
tumor growth (tumor volume and weight) [5]: significantly inhibited tumor growth
tumors completely regressed (number) [7]: two
tumors completely regressed (percent) [7]: 12%
glucose levels [8]: mildly increased
blood urea, cholesterol and phosphate levels [8, 11]: altered
blood counts or liver function tests [8, 11]: did not affect
hypophosphatemia in treated mice [8]: observed

B3: soluble klotho protein: V5-tagged entire extracellular domain of mouse Klotho protein (residues 31 to 982 of SEQ ID NO: 3) from Drosophila cells (protein)
chain: RCLSAEPGQGAQTWARFARAPAPEAAGLLHDTFPDGFLWAVGSAAYQTEGGWRQHGKGASIWDTFTHHSGAAPSDSPIVVAPSGAPSPPLSSTGDVASDSYNNVYRDTEGLRELGVTHYRFSISWARVLPNGTAGTPNREGLRYYRRLLERLRELGVQPVVTLYHWDLPQRLQDTYGGWANRALADHFRDYAELCFRHFGGQVKYWITIDNPYVVAWHGYATGRLAPGVRGSSRLGYLVAHNLLLAHAKVWHLYNTSFRPTQGGRVSIALSSHWINPRRMTDYNIRECQKSLDFVLGWFAKPIFIDGDYPESMKNNLSSLLPDFTESEKRLIRGTADFFALSFGPTLSFQLLDPNMKFRQLESPNLRQLLSWIDLEYNHPPIFIVENGWFVSGTTKRDDAKYMYYLKKFIMETLKAIRLDGVDVIGYTAWSLMDGFEWHRGYSIRRGLFYVDFLSQDKELLPKSSALFYQKLIEDNGFPPLPENQPLEGTFPCDFAWGVVDNYVQVDTTLSQFTDPNVYLWDVHHSKRLIKVDGVVAKKRKPYCVDFSAIRPQITLLREMRVTHFRFSLDWALILPLGNQTQVNHTVLHFYRCMISELVHANITPVVALWQPAAPHQGLPHALAKHGAWENPHTALAFADYANLCFKELGHWVNLWITMNEPNTRNMTYRAGHHLLRAHALAWHLYDDKFRAAQKGKISIALQADWIEPACPFSQNDKEVAERVLEFDIGWLAEPIFGSGDYPRVMRDWLNQKNNFLLPYFTEDEKKLVRGSFDFLAVSHYTTILVDWEKEDPMKYNDYLEVQEMTDITWLNSPSQVAVVPWGLRKVLNWLRFKYGDLPMYVTANGIDDDPHAEQDSLRIYYIKNYVNEALKAYVLDDINLCGYFAYSLSDRSAPKSGFYRYAANQFEPKPSMKHYRRIIDSNGFLGSGTLGRFCPEEYTVCTECGFFQTRK
modifications: V5 tag
phosphorylation of IGF-1R, AKT and ERK1/2 [9]: inhibited phosphorylation
phosphorylation of the IGF-1 receptor [10]: inhibited
